Two molecules from article PMC4678811, “Assembly and dynamics of the U4/U6 di-snRNP by single-molecule FRET” (Nucleic Acids Research, 2015) can be followed below.

Several values for one entry are separate records, joined by “and”; a condition that tells them apart may be missing. Identical values can stand only once.

The subject of series [1] is LSm2-LSm8 complex (Saccharomyces cerevisiae). Kind of series: EMSA. The following applies: apparent; Hill 1.7; EMSA: 2 nM RNA, 10 mM K-HEPES pH 7.5, 100 mM KCl, 0.01% NP-40, 20 ug E. coli tRNA in 100 ul, on ice 60 min, 4% native gel 0.5X TBE 4 C; smFRET: 10 mM Tris-HCl …. (In general: Mobility shift assays separate free from complexed probe on a gel.)
In series [2] the test system is Prp31 (Saccharomyces cerevisiae). As to the kind of experiment: EMSA. The conditions noted are these: apparent; Hill 1.9; EMSA: 2 nM RNA, 10 mM K-HEPES pH 7.5, 100 mM KCl, 0.01% NP-40, 20 ug E. coli tRNA in 100 ul, on ice 60 min, 4% native gel 0.5X TBE 4 C; smFRET: 10 mM Tris-HCl ….
Series [3] relates to Sm protein complex (SmB, D1, D2, D3, E, F, G) (Saccharomyces cerevisiae). Kind of series: EMSA. The following applies: apparent; Hill 3.5; EMSA: 2 nM RNA, 10 mM K-HEPES pH 7.5, 100 mM KCl, 0.01% NP-40, 20 ug E. coli tRNA in 100 ul, on ice 60 min, 4% native gel 0.5X TBE 4 C; smFRET: 10 mM Tris-HCl ….
Series [4] deals with Prp3/4 (Prp3-Prp4 complex) (Saccharomyces cerevisiae). Kind of series: EMSA. The following applies: apparent; Hill 2.6; EMSA: 2 nM RNA, 10 mM K-HEPES pH 7.5, 100 mM KCl, 0.01% NP-40, 20 ug E. coli tRNA in 100 ul, on ice 60 min, 4% native gel 0.5X TBE 4 C; smFRET: 10 mM Tris-HCl ….
The test system of series [5] is Snu13 (Saccharomyces cerevisiae). Kind of series: EMSA. The conditions noted are these: apparent; Hill 1; EMSA: 2 nM RNA, 10 mM K-HEPES pH 7.5, 100 mM KCl, 0.01% NP-40, 20 ug E. coli tRNA in 100 ul, on ice 60 min, 4% native gel 0.5X TBE 4 C; smFRET: 10 mM Tris-HCl ….
Series [6] deals with the molecule itself. As to the kind of experiment: native MS; minor peaks of the Mono-Q column after the main peak of the purified LSm2–LSm8 complex.

With U4/U6 snRNA duplex (full length), the Kd amounted to 5 nM in series [1]; 243 nM in series [2]; 89 nM in series [3]; 57 nM in series [4]; 17 nM in series [5].

B1: LSm2–LSm8 complex (complex, Saccharomyces cerevisiae)
chain 1: MLFFSFFKTLVDQEVVVELKNDIEIKGTLQSVDQFLNLKLDNISCTDEKKYPHLGSVRNIFIRGSTVRYVYLNKNMVDTNLLQDATRREVMTERK
chain 2: METPLDLLKLNLDERVYIKLRGARTLVGTLQAFDSHCNIVLSDAVETIYQLNNEELSESERRCEMVFIRGDTVTLISTPSEDDDGAVEI
chain 3: MLPLYLLTNAKGQQMQIELKNGEIIQGILTNVDNWMNLTLSNVTEYSEESAINSEDNAESSKAVKLNEIYIRGTFIKFIKLQDNIIDKVKQQINSNNNSNSNGPGH
chain 4: MSLPEILPLEVIDKTINQKVLIVLQSNREFEGTLVGFDDFVNVILEDAVEWLIDPEDESRNEKVMQHHGRMLLSGNNIAILVPGGKKTPTEAL
chain 5: MSGKASTEGSVTTEFLSDIIGKTVNVKLASGLLYSGRLESIDGFMNVALSSATEHYESNNNKLLNKFNSDVFLRGTQVMYISEQKI
chain 6: MHQQHSKSENKPQQQRKKFEGPKREAILDLAKYKDSKIRVKLMGGKLVIGVLKGYDQLMNLVLDDTVEYMSNPDDENNTELISKNARKLGLTVIRGTILVSLSSAEGSDVLYMQK
chain 7: MSATLKDYLNKRVVIIKVDGECLIASLNGFDKNTNLFITNVFNRISKEFICKAQLLRGSEIALVGLIDAENDDSLAPIDEKKVPMLKDTKNKIENEHVIWEKVYESKTK
notes: LSm2, Saccharomyces cerevisiae, untagged; LSm3, Saccharomyces cerevisiae, untagged; LSm4, Saccharomyces cerevisiae, amino acids 1-106, untagged; LSm5, Saccharomyces cerevisiae; LSm6, Saccharomyces cerevisiae, untagged; LSm7, Saccharomyces cerevisiae, untagged; LSm8, Saccharomyces cerevisiae; Both tags are TEV-cleavable; also called LSm 2–8 complex; LSm complex; source: S. cerevisiae BCY123, …
Usually stoichiometry N stands for a count of units in the complex or per binding partner. Regarding B1, in series [6], the “stoichiometry N” value is 2 and 3.
